Experimental data as given in the Human Domainome abundance scans (Beltran et al. 2025).
± gives the uncertainty stated by the source.

B1: Myocardin-related transcription factor A, residues 341 to 383; numbered along this chain, Q969V6 (parent)
chain: GALPANLDDMKVAELKQELKLRSLPVSGTKTELIERLRAYQDQ

Variants of: B1
Assay: abundance fitness (aPCA) (normalised: wild type 0, dead -1); higher = more abundant; growth selection in yeast, the domain comes from the species named
Settings: Homo sapiens

Abundance fitness: each site, then its substitutions
E14: M 0.022 ± 0.13; P -0.656 ± 0.12; Q -0.063 ± 0.095; R -0.169 ± 0.083; S -0.056 ± 0.072; T -0.134 ± 0.096; V -0.127 ± 0.1; W -0.314 ± 0.089; Y -0.147 ± 0.089
L15: A -0.336 ± 0.11; C -0.999 ± 0.27; D -0.369 ± 0.18; E -0.604 ± 0.14; F -0.466 ± 0.23; G -0.558 ± 0.063; H -0.621 ± 0.21; I 0.119 ± 0.22; K -0.508 ± 0.14; M -0.481 ± 0.27; N -0.628 ± 0.22; Q -0.662 ± 0.12; R -0.831 ± 0.14; T -0.403 ± 0.13; V -0.092 ± 0.066; W -1.38 ± 0.15
K16: D -0.714 ± 0.25; E -0.052 ± 0.068; H 0.123 ± 0.16; L -0.408 ± 0.14; M 0.169 ± 0.18; N -0.384 ± 0.11; P -0.587 ± 0.1; Q 0.186 ± 0.18; R -0.159 ± 0.067; S 0.006 ± 0.14; T -0.036 ± 0.077; V -0.143 ± 0.076; Y -0.131 ± 0.21
Q17: A 0.015 ± 0.077; C -0.593 ± 0.11; D -0.247 ± 0.091; E 0.048 ± 0.083; F -0.234 ± 0.085; G -0.153 ± 0.064; K -0.283 ± 0.14; L -0.306 ± 0.16; M 0.079 ± 0.12; P -0.794 ± 0.14; R -0.049 ± 0.059; S -0.036 ± 0.084; T -0.134 ± 0.078; V -0.207 ± 0.076; W -0.595 ± 0.12; Y -0.263 ± 0.12
E18: A -0.007 ± 0.067; C -0.2 ± 0.1; G -0.701 ± 0.084; H -0.432 ± 0.23; I -0.906 ± 0.24; K -0.365 ± 0.12; L -0.35 ± 0.084; M -0.274 ± 0.12; P -1.33 ± 0.25; Q -0.292 ± 0.11; R -0.593 ± 0.058; S -0.28 ± 0.18; T -0.5 ± 0.098; V -0.15 ± 0.12; W -0.606 ± 0.09
L19: A -0.048 ± 0.087; C -0.083 ± 0.09; D -0.621 ± 0.18; E -0.55 ± 0.1; G -0.536 ± 0.066; H -0.852 ± 0.28; K -0.8 ± 0.12; M 0.178 ± 0.29; Q -0.408 ± 0.09; R -0.812 ± 0.088; S -0.237 ± 0.2; T -0.391 ± 0.11; V -0.286 ± 0.073; W -0.911 ± 0.23
K20: A -0.003 ± 0.071; C 0.309 ± 0.13; D -0.061 ± 0.12; E 0.145 ± 0.08; F -0.153 ± 0.097; H -0.342 ± 0.18; L 0.002 ± 0.075; M 0.044 ± 0.098; N -0.137 ± 0.12; P -0.453 ± 0.091; R 0.011 ± 0.06; S 0.05 ± 0.075; T -0.145 ± 0.1; V -0.041 ± 0.072; W -0.372 ± 0.072; Y 0.657 ± 0.28
L21: A 0.038 ± 0.075; C -0.229 ± 0.14; D 0.041 ± 0.081; E 0.098 ± 0.071; F -0.177 ± 0.091; G -0.067 ± 0.065; H 0.003 ± 0.23; N -0.08 ± 0.45; P -0.593 ± 0.13; Q 0.061 ± 0.1; R 0.057 ± 0.063; S -0.089 ± 0.06; T 0.094 ± 0.085; V -0.004 ± 0.068; W -0.283 ± 0.078
R22: A -0.099 ± 0.16; C -0.178 ± 0.12; D -0.327 ± 0.22; E -0.163 ± 0.11; F -0.816 ± 0.41; G -0.54 ± 0.096; H -0.232 ± 0.096; K -0.318 ± 0.14; L -0.223 ± 0.1; M -0.229 ± 0.18; N -0.47 ± 0.17; P -0.561 ± 0.25; Q -0.079 ± 0.088; S -0.561 ± 0.16; T -0.301 ± 0.2; V -0.277 ± 0.094; W -0.572 ± 0.16
S23: A 0.018 ± 0.063; C 0.052 ± 0.11; D 0.073 ± 0.072; E 0.092 ± 0.084; F -0.205 ± 0.14; G 0.291 ± 0.063; H 0.176 ± 0.11; I -0.307 ± 0.084; K 0.142 ± 0.15; L -0.018 ± 0.071; M -0.162 ± 0.095; N 0.008 ± 0.071; P -0.834 ± 0.28; Q -0.101 ± 0.083; R -0.036 ± 0.061; V -0.22 ± 0.072; W -0.256 ± 0.083; Y 0.038 ± 0.2
L24: A -0.27 ± 0.088; C -0.385 ± 0.091; D -0.835 ± 0.19; G -0.471 ± 0.077; H -0.979 ± 0.18; I -0.425 ± 0.11; M -0.091 ± 0.078; P -0.639 ± 0.13; Q -0.07 ± 0.13; R -0.436 ± 0.074; V -0.342 ± 0.075; W -0.751 ± 0.13; Y -1.02 ± 0.2
P25: A -0.263 ± 0.069; D -0.197 ± 0.088; E -0.055 ± 0.076; F -0.963 ± 0.14; G -0.186 ± 0.059
